Data on two molecules can be found in US20230218738A1 (Pfizer, published 2023).

Numbering of substitutions follows the chain as printed.

Common to all, as to experiment: BLI (Octet), F on anti-HIS tip, 20 nM mAb
In general terms: BLI is a label-free optical method that tracks binding on a fibre tip over time.

The target in experiment [1] is T1, RSV F protein mutant pXCS842 (RSV A2, UniProt P03420 26-109).
T1 chain 1: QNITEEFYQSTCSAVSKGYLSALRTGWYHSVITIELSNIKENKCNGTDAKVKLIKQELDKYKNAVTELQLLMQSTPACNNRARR
T1 chain 2: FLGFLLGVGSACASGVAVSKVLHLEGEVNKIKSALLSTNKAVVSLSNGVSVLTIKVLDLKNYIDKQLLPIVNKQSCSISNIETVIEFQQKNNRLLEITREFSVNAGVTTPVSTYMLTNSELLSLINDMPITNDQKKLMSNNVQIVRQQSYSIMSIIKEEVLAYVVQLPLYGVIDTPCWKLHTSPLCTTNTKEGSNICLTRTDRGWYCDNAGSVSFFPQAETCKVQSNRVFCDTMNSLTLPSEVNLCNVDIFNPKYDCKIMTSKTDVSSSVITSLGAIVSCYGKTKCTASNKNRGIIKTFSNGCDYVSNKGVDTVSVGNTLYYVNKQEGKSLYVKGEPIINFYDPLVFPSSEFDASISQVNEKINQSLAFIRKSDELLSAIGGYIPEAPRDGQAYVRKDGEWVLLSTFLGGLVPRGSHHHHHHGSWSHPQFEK

For experiment [2], the target named is T2, RSV F protein mutant pXCS774 (RSV A2, UniProt P03420 26-109).
T2 chain 1: T1 chain 1
T2 chain 2: T1 chain 2 with I54S, V160I, E351Q, D353S

The target of experiment [3] is RSV F protein mutant pXCS853 (RSV A2, UniProt P03420 26-109).
The target in experiment [4] is RSV F protein mutant pXCS760 (RSV A2, UniProt P03420 26-109).
Experiment [5] deals with RSV F protein mutant pXCS740 (RSV A2, UniProt P03420 26-109).
In experiment [6] the target is RSV F protein mutant pXCS854 (RSV A2, UniProt P03420 26-109).
Experiment [7] addresses T3, RSV F protein mutant pXCS892 (RSV A2, UniProt P03420 26-109).
T3 chain 1: T1 chain 1 with S30C, C78T
T3 chain 2: T1 chain 2 with C12I, L52C, V160I, S350D

Experiment [8] concerns the target T4, RSV F protein mutant pXCS851 (RSV A2, UniProt P03420 26-109).
T4 chain 1: T1 chain 1
T4 chain 2: T1 chain 2 with V160I

In experiment [9] the target is T5, RSV F protein mutant pXCS852 (RSV A2, UniProt P03420 26-109).
T5 chain 1: T1 chain 1 with S30C, C78T
T5 chain 2: T1 chain 2 with C12I, L52C, I54S

B1: AM22 (antibody, V domains shown)
VH: QVQLVQSGAEVKKPGATVKVSCKISGHTLIKLSIHWVRQAPGKGLEWMGGYEGEVDEIFYAQKFQHRLTVIADTATDTVYMELGRLTSDDTAVYFCGTLGVTVTEAGLGIDDYWGQGTLVTVSS
VL: EIVLTQSPGTLSLSPGERATLSCRASQIVSRNHLAWYQQKPGQAPRLLIFGASSRATGIPVRFSGSGSGTDFTLTINGLAPEDFAVYYCLSSDSSIFTFGPGTKVDFK
Consider B1, for which the “Response (nm shift)” value was 0.493 nm in [1]; 0.34 nm in experiment [2]; 0.484 nm in experiment [3]; 0.121 nm in experiment [4]; 0.172 nm in experiment [5]; 0.453 nm in experiment [6]. Besides, the “Response (nm shift)” value is 0.542 nm in experiment [7], 0.508 nm in experiment [8] and 0.565 nm in [9].

B2: MPE8 (antibody, V domains shown)
VH: EVQLVESGGGLVKPGGSLRLSCAASGFTFSSYSMNWVRQAPGKGLEWVSSISASSSYSDYADSAKGRFTISRDNAKTSLFLQMNSLRAEDTAIYFCARARATGYSSITPYFDIWGQGTLVTVSS
VL: QSVVTQTPSVSGAPGQRVTISCTGSSSNIGAGYDVHWYQQLPGTAPKLLIYDNNNRPSGVPDRFSASKSGTSASLAITGLQAEDEADYYCQSYDRNLSGVFGTGTKVTVL
notes: also called MPEG
As to B2, the “Response (nm shift)” value in experiment [1] came out at 0.932 nm; in experiment [2], 0.795 nm; in [3] it was 0.905 nm; in experiment [4], 0.151 nm; in experiment [5], 0.546 nm; in experiment [6] it was 0.886 nm. In addition, the “Response (nm shift)” value in experiment [7] came to 1.03 nm; in [8] it was 1.02 nm; in [9], 1.13 nm.
